Key:
NCC(=O)O = tested on: T1, NCC(=O)O; assay: purified protein; format: biochemical, Pseudomonas putida; settings: glycine varied 2.5-50 mM, co-substrate 4-methylsulfonylbenzaldehyde, PLP, HEPES-NaOH pH 8.0, 30 °C
T1 construct: E. coli BL21(DE3); HisTrap, Resource Q, Superdex 200

purified protein = substrate: NCC(=O)O; assay: purified protein; format: biochemical, Pseudomonas putida; settings: glycine varied 2.5-50 mM, co-substrate 4-methylsulfonylbenzaldehyde, PLP, HEPES-NaOH pH 8.0, 30 °C

Molecule: L-PpTA (Pseudomonas putida KT2440; A9V)
- Km (NCC(=O)O): 13.8 mM
- kcat (NCC(=O)O): 7.2 s⁻¹
- kcat/Km (NCC(=O)O): 520 M⁻¹ s⁻¹

Molecule: L-PpTA (Pseudomonas putida KT2440; Y13C)
- Km (NCC(=O)O): 24.7 mM
- kcat (NCC(=O)O): 13.9 s⁻¹
- kcat/Km (NCC(=O)O): 560 M⁻¹ s⁻¹

Molecule: L-PpTA (Pseudomonas putida KT2440; Y13K)
- Km (NCC(=O)O): 19.6 mM
- kcat (NCC(=O)O): 10.4 s⁻¹
- kcat/Km (NCC(=O)O): 530 M⁻¹ s⁻¹

Molecule: L-PpTA (Pseudomonas putida KT2440; Y312R)
- Km (NCC(=O)O): 20.1 mM
- kcat (NCC(=O)O): 12.2 s⁻¹
- kcat/Km (NCC(=O)O): 610 M⁻¹ s⁻¹

Molecule: L-PpTA (Pseudomonas putida KT2440; Y312E)
- Km (NCC(=O)O): 25.3 mM
- kcat (NCC(=O)O): 15.3 s⁻¹
- kcat/Km (NCC(=O)O): 600 M⁻¹ s⁻¹

Molecule: L-PpTA (Pseudomonas putida KT2440; E147D)
- Km (NCC(=O)O): 15.1 mM
- kcat (NCC(=O)O): 6.5 s⁻¹
- kcat/Km (NCC(=O)O): 430 M⁻¹ s⁻¹

Molecule: L-PpTA (Pseudomonas putida KT2440; A9L)
- Km (NCC(=O)O): 14.6 mM
- kcat (NCC(=O)O): 7.7 s⁻¹
- kcat/Km (NCC(=O)O): 530 M⁻¹ s⁻¹

Molecule: L-PpTA (Pseudomonas putida KT2440; H133Y)
- Km (NCC(=O)O): 22.6 mM
- kcat (NCC(=O)O): 12.5 s⁻¹
- kcat/Km (NCC(=O)O): 550 M⁻¹ s⁻¹

Molecule: L-PpTA (Pseudomonas putida KT2440; H133N)
- Km (NCC(=O)O): 12.8 mM
- kcat (NCC(=O)O): 12.7 s⁻¹
- kcat/Km (NCC(=O)O): 990 M⁻¹ s⁻¹

Molecule: L-PpTA (Pseudomonas putida KT2440; H133W)
- Km (NCC(=O)O): 12.9 mM
- kcat (NCC(=O)O): 12.3 s⁻¹
- kcat/Km (NCC(=O)O): 950 M⁻¹ s⁻¹

B1: L-PpTA (Pseudomonas putida KT2440) (protein)
chain: MTDKSQQFASDNYSGICPEAWVAMEKANRGHDRAYGDDQWTERASEYFRNLFETDCEVFFAFNGTAANSLALASLCQSYHSVICSETAHVETDECGAPEFFSNGSKLLTAASVNGKLTPQSIREVALKRQDIHYPKPRVVTITQATEVGTVYRPDELKAISATCKELGLNLHMDGARFTNACAFLGCSPAELTWKAGVDVLCFGGTKNGMAVGEAILFFNRQLAEDFDYRCKQAGQLASKMRFLSAPWVGLLEDGAWLRHGNHANHCAQLLASLVSDLPGVELMFPVEANGVFLQMPEHAIEALRGKGWRFYTFIGSGGARFMCSWDTEEARVRELAADIRTIIGG
notes: E. coli BL21(DE3); HisTrap, Resource Q, Superdex 200
- Km (purified protein): 17.4 mM
- kcat (purified protein): 7.1 s⁻¹
- kcat/Km (purified protein): 410 M⁻¹ s⁻¹
